Assay results reported in the RNAGym collection of RNA variant scans (doi:10.1021/acssynbio.7b00057).

B1: Pistol ribozyme (parent)
chain: GGGUCGUUGUUCCAUAAUCGCGUGGAUAUGGCACGCAAGUUUCUACCGGGCACCGUAAAUGUCCGACUGGAGCCGUUCGGGCGGCUAUAAACAGACCUCAGGCCCGAAGCGUGGCGGCACCUGCCGCCGGUGGUAAAAAAGAUCGGAAGAGCACACGUCU

Variants of: B1
Assay: aptazyme ON/OFF ratio, guanine; higher = stronger switching; co-transcriptional cleavage with and without guanine

Variant	aptazyme ON/OFF ratio
G9U U10A C12G C13G	1.33
G9U U10A C12G C13A	1.07
G9C U10G U11G C12G C13A	1.1
G9C U10G U11G C12G C13U	1.1
G9C U10G U11G C12G C13G	1.13
U10A C12A	1.62
U10A C12U	1.16
U10A C12G	1.65
G9U U11A C12A C13A	1.59
G9U U11A C12A C13U	1.23
G9U U11A C12A C13G	1.31
G9C U11C C12U	1.14
G9C U11C C12G	1.22
G9C U11C C12A	1.25
G9U U10A U11G C13U	1.72
G9U U10A U11G C13A	1.56
G9U U10A U11G C13G	1.22
G9U U10A U11A C12A C13U	1.41
G9U U10A U11A C12A C13G	1.29
G9U U10A U11A C12A C13A	1.37
G9U U10C U11G C13A	1.36

Variant	aptazyme ON/OFF ratio
G9U U10C U11G C13U	1.52
G9U U10C U11G C13G	1.18
G9U U10C U11C C12G	1.12
G9U U10C U11C C12U	1.31
G9U U10C U11C C12A	1.08
G9U U11C C13U	1.37
G9U U11C C13A	1.22
G9U U11C C13G	1.06
G9U C13U	2.07
G9U C13G	1.09
G9U C13A	1.34
G9U U10C U11C C13U	1.03
G9U U10C U11C C13A	1.04
G9U U10C U11C C13G	1.06
G9U U10G C13G	1.29
G9U U10G C13U	1.65
G9U U10G C13A	1.52
G9U U11C C12U C13U	1.34
G9U U11C C12U C13G	1.23
G9U U11C C12U C13A	1.51
G9U U10A U11A C12G	1.47

Variant	aptazyme ON/OFF ratio
G9U U10A U11A C12A	1.54
G9U U10A U11A C12U	1.64
G9U U10C U11G C12A C13G	1.22
G9U U10C U11G C12A C13U	1.08
G9U U10C U11G C12A C13A	1.34
G9U U10G U11G C12U	1.33
G9U U10G U11G C12G	1.82
G9U U10G U11G C12A	1.75
G9U U10A U11A C13G	1.17
G9U U10A U11A C13A	1.38
G9U U10A U11A C13U	1.25
G9U U10C C12A C13A	1.39
G9U U10C C12A C13G	1.61
G9U U10C C12A C13U	1.38
G9U U10C U11G	3.45
G9U U10C U11C	1.63
G9U U10C U11A	3.16
G9U U10G U11G C12U C13A	1.1
G9U U10G U11G C12U C13G	1.17
G9U U10G U11G C12U C13U	1.34
G9U	4.29

Variant	aptazyme ON/OFF ratio
G9U U10C C13U	1.72
G9U U10C C13G	1.13
G9U U10C C13A	1.22
G9C U10G U11G C13G	1.12
G9C U10G U11G C13U	1.13
G9C U10G U11G C13A	1.09
G9U U10C U11A C12A C13G	1.24
G9U U10C U11A C12A C13U	1.57
G9U U10C U11A C12A C13A	1.53
G9U U11A C12G C13G	1.2
G9U U11A C12G C13A	1.82
G9U U11A C12G C13U	1
G9U U10G U11C C13A	1.26
G9U U10G U11C C13G	1.1
G9U U10G U11C C13U	1.14
U10A C12U C13U	1.54
U10A C12U C13A	1.3
U10A C12U C13G	1.33
G9U C12U C13U	1.34
G9U C12U C13G	1.3
G9U C12U C13A	1.23
